# The supplement of paper PMC9112550, “Optimization of the antimicrobial peptide Bac7 by deep mutational scanning” (BMC Biology, 2022)
# Tested on: Escherichia coli TOP10
# Test: shrunken log2 fold change of peptide-encoding DNA abundance (4.5 h post-induction vs induction); higher = less antimicrobial activity (less host growth inhibition)
# Conditions: time post-induction: 4.5 h; library: site-saturation at positions 5, 18, 19, 20
# 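Note: peptides expressed intracellularly from a pBAD plasmid library in pooled LB shake-flask culture, induced with 0.3% L-arabinose, DNA abundance read by NGS, three biological replicates, DESeq2 with apeglm shrinkage.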
row,Sequence,shrunken log2 fold change
1,RRIRDRPPRLPRPRPRPPEAPRP,0.479
2,RRIRDRPPRLPRPRPRPPEWPRP,0.557
3,RRIRDRPPRLPRPRPRPPFQPRP,0.193
4,RRIRDRPPRLPRPRPRPPGEPRP,-0.0136
5,RRIRDRPPRLPRPRPRPPGKPRP,0.176
6,RRIRDRPPRLPRPRPRPPGNPRP,0.21
7,RRIRDRPPRLPRPRPRPPGVPRP,0.127
8,RRIRDRPPRLPRPRPRPPGYPRP,0.0954
9,RRIRDRPPRLPRPRPRPPHDPRP,2.35
10,RRIRDRPPRLPRPRPRPPILPRP,-0.147
11,RRIRDRPPRLPRPRPRPPLNPRP,0.0565
12,RRIRDRPPRLPRPRPRPPNEPRP,-0.0231
13,RRIRDRPPRLPRPRPRPPPWPRP,0.788
14,RRIRDRPPRLPRPRPRPPQFPRP,-0.15
15,RRIRDRPPRLPRPRPRPPQNPRP,0.409
16,RRIRDRPPRLPRPRPRPPSRPRP,-0.0515
17,RRIRDRPPRLPRPRPRPPSSPRP,-0.0759
18,RRIRDRPPRLPRPRPRPPTFPRP,-0.158
19,RRIRDRPPRLPRPRPRPPVEPRP,-0.0332
20,RRIRDRPPRLPRPRPRPPVHPRP,0.105
21,RRIRDRPPRLPRPRPRPPVQPRP,0.104
22,RRIRDRPPRLPRPRPRPPWAPRP,0.311
23,RRIRDRPPRLPRPRPRPPYYPRP,-0.474
24,RRIRDRPPRLPRPRPRPQCPPRP,-0.00693
25,RRIRDRPPRLPRPRPRPQDDPRP,0.0352

row,Sequence,shrunken log2 fold change
1,RRIRDRPPRLPRPRPRPQDWPRP,0.324
2,RRIRDRPPRLPRPRPRPQGNPRP,-0.0306
3,RRIRDRPPRLPRPRPRPQGSPRP,-0.0152
4,RRIRDRPPRLPRPRPRPQGVPRP,0.0763
5,RRIRDRPPRLPRPRPRPQGYPRP,-0.0816
6,RRIRDRPPRLPRPRPRPQHFPRP,-0.422
7,RRIRDRPPRLPRPRPRPQHKPRP,-0.217
8,RRIRDRPPRLPRPRPRPQHLPRP,-0.444
9,RRIRDRPPRLPRPRPRPQIFPRP,-0.00965
10,RRIRDRPPRLPRPRPRPQKCPRP,0.0207
11,RRIRDRPPRLPRPRPRPQKLPRP,-0.307
12,RRIRDRPPRLPRPRPRPQMNPRP,-0.315
13,RRIRDRPPRLPRPRPRPQPAPRP,0.559
14,RRIRDRPPRLPRPRPRPQQCPRP,-0.00965
15,RRIRDRPPRLPRPRPRPQQGPRP,-0.00207
16,RRIRDRPPRLPRPRPRPQQSPRP,0.0846
17,RRIRDRPPRLPRPRPRPQQTPRP,-0.252
18,RRIRDRPPRLPRPRPRPQQYPRP,-0.473
19,RRIRDRPPRLPRPRPRPQRIPRP,-0.142
20,RRIRDRPPRLPRPRPRPQRSPRP,0.0502
21,RRIRDRPPRLPRPRPRPQRYPRP,-0.0811
22,RRIRDRPPRLPRPRPRPQVCPRP,0.19
23,RRIRDRPPRLPRPRPRPQVSPRP,0.0416
24,RRIRDRPPRLPRPRPRPQVTPRP,0.0425
25,RRIRDRPPRLPRPRPRPQWGPRP,-0.0612

row,Sequence,shrunken log2 fold change
1,RRIRDRPPRLPRPRPRPQYLPRP,-0.248
2,RRIRDRPPRLPRPRPRPQYTPRP,-0.31
3,RRIRDRPPRLPRPRPRPRAFPRP,-0.2
4,RRIRDRPPRLPRPRPRPRAPPRP,0.359
5,RRIRDRPPRLPRPRPRPRCFPRP,1.66
6,RRIRDRPPRLPRPRPRPRDMPRP,-0.0954
7,RRIRDRPPRLPRPRPRPRGDPRP,0.231
8,RRIRDRPPRLPRPRPRPRGIPRP,-0.0372
9,RRIRDRPPRLPRPRPRPRGVPRP,0.393
10,RRIRDRPPRLPRPRPRPRISPRP,0.0345
11,RRIRDRPPRLPRPRPRPRKPPRP,0.39
12,RRIRDRPPRLPRPRPRPRKVPRP,0.187
13,RRIRDRPPRLPRPRPRPRLRPRP,0.122
14,RRIRDRPPRLPRPRPRPRMYPRP,-0.154
15,RRIRDRPPRLPRPRPRPRNEPRP,0.00109
16,RRIRDRPPRLPRPRPRPRNKPRP,-0.014
17,RRIRDRPPRLPRPRPRPRNPPRP,-0.0578
18,RRIRDRPPRLPRPRPRPRNSPRP,-0.394
19,RRIRDRPPRLPRPRPRPRPIPRP,0.429
20,RRIRDRPPRLPRPRPRPRPNPRP,0.323
21,RRIRDRPPRLPRPRPRPRQIPRP,-0.233
22,RRIRDRPPRLPRPRPRPRQVPRP,0.262
23,RRIRDRPPRLPRPRPRPRRMPRP,-0.152
24,RRIRDRPPRLPRPRPRPRRWPRP,0.453
25,RRIRDRPPRLPRPRPRPRSSPRP,-0.0289
